Test results: patent publication US20260167699A1 (Chugai, published 2026)

B1: GpH7-A5/GpH7-B3 variant I332_04F/GpL16-k0 (antibody, human IgG1, kappa)
heavy 1: not shown
heavy 2: not shown
light: DIVMTQSPLSLPVTPGEPASISCQASESLVHSNRNTYLHWYLQKPGQSPQLLIYKVSNRFSGVPDRFSGSGSGTDFTLKISRVEAEDVGVYYCSQNTHVPPTFGQGTKVEIERTVAAPSVFIFPPSDEQLKSGTASVVCLLNNFYPREAKVQWKVDNALQSGNSQESVTEQDSKDSTYSLSSTLTLSKADYEKHKVYACEVTHQGLSSPVTKSFNRGEC
notes: copies: 1 + 1 + 2
B2: GpH7-A5/GpH7-B3 variant I332_05P/GpL16-k0 (antibody, human IgG1, kappa)
heavy 1: not shown
heavy 2: not shown
light: B1 light
notes: copies: 1 + 1 + 2
B3: GpH7-A5/GpH7-B3 variant I332_06M/GpL16-k0 (antibody, human IgG1, kappa)
heavy 1: not shown
heavy 2: not shown
light: B1 light
notes: copies: 1 + 1 + 2
B4: GpH7-A5/GpH7-B3 variant I332_08L/GpL16-k0 (antibody, human IgG1, kappa)
heavy 1: not shown
heavy 2: not shown
light: B1 light
notes: copies: 1 + 1 + 2
B5: GpH7-A5/GpH7-B3 variant I332_09D/GpL16-k0 (antibody, human IgG1, kappa)
heavy 1: not shown
heavy 2: not shown
light: B1 light
notes: copies: 1 + 1 + 2
B6: GpH7-A5/GpH7-B3 variant I332_10E/GpL16-k0 (antibody, human IgG1, kappa)
heavy 1: not shown
heavy 2: not shown
light: B1 light
notes: copies: 1 + 1 + 2
B7: GpH7-A5/GpH7-B3 variant I332_12R/GpL16-k0 (antibody, human IgG1, kappa)
heavy 1: not shown
heavy 2: not shown
light: B1 light
notes: copies: 1 + 1 + 2
B8: GpH7-A5/GpH7-B3 variant I332_13S/GpL16-k0 (antibody, human IgG1, kappa)
heavy 1: not shown
heavy 2: not shown
light: B1 light
notes: copies: 1 + 1 + 2
B9: GpH7-A5/GpH7-B3 variant I332_14T/GpL16-k0 (antibody, human IgG1, kappa)
heavy 1: not shown
heavy 2: not shown
light: B1 light
notes: copies: 1 + 1 + 2
B10: GpH7-A5/GpH7-B3 variant I332_15Y/GpL16-k0 (antibody, human IgG1, kappa)
heavy 1: not shown
heavy 2: not shown
light: B1 light
notes: copies: 1 + 1 + 2
B11: GpH7-A5/GpH7-B3 variant I332_16H/GpL16-k0 (antibody, human IgG1, kappa)
heavy 1: not shown
heavy 2: not shown
light: B1 light
notes: copies: 1 + 1 + 2
B12: GpH7-A5/GpH7-B3 variant I332_18N/GpL16-k0 (antibody, human IgG1, kappa)
heavy 1: not shown
heavy 2: not shown
light: B1 light
notes: copies: 1 + 1 + 2
B13: GpH7-A5/GpH7-B3 variant I332_19Q/GpL16-k0 (antibody, human IgG1, kappa)
heavy 1: not shown
heavy 2: not shown
light: B1 light
notes: copies: 1 + 1 + 2
B14: GpH7-A5/GpH7-B3 variant I332_20W/GpL16-k0 (antibody, human IgG1, kappa)
heavy 1: not shown
heavy 2: not shown
light: B1 light
notes: copies: 1 + 1 + 2
B15: GpH7-A5/GpH7-B3 variant I336_01G/GpL16-k0 (antibody, human IgG1, kappa)
heavy 1: not shown
heavy 2: not shown
light: B1 light
notes: copies: 1 + 1 + 2
B16: GpH7-A5/GpH7-B3 variant I336_02A/GpL16-k0 (antibody, human IgG1, kappa)
heavy 1: not shown
heavy 2: not shown
light: B1 light
notes: copies: 1 + 1 + 2
B17: GpH7-A5/GpH7-B3 variant I336_03V/GpL16-k0 (antibody, human IgG1, kappa)
heavy 1: not shown
heavy 2: not shown
light: B1 light
notes: copies: 1 + 1 + 2
B18: GpH7-A5/GpH7-B3 variant I336_04F/GpL16-k0 (antibody, human IgG1, kappa)
heavy 1: not shown
heavy 2: not shown
light: B1 light
notes: copies: 1 + 1 + 2
B19: GpH7-A5/GpH7-B3 variant I336_06M/GpL16-k0 (antibody, human IgG1, kappa)
heavy 1: not shown
heavy 2: not shown
light: B1 light
notes: printed 1336_06M, read as I336_06M; also called 1336_06M; copies: 1 + 1 + 2
B20: GpH7-A5/GpH7-B3 variant I336_08L/GpL16-k0 (antibody, human IgG1, kappa)
heavy 1: not shown
heavy 2: not shown
light: B1 light
notes: copies: 1 + 1 + 2
B21: GpH7-A5/GpH7-B3 variant I336_09D/GpL16-k0 (antibody, human IgG1, kappa)
heavy 1: not shown
heavy 2: not shown
light: B1 light
notes: copies: 1 + 1 + 2
B22: GpH7-A5/GpH7-B3 variant I336_10E/GpL16-k0 (antibody, human IgG1, kappa)
heavy 1: not shown
heavy 2: not shown
light: B1 light
notes: copies: 1 + 1 + 2
B23: GpH7-A5/GpH7-B3 variant I336_11K/GpL16-k0 (antibody, human IgG1, kappa)
heavy 1: not shown
heavy 2: not shown
light: B1 light
notes: copies: 1 + 1 + 2
B24: GpH7-A5/GpH7-B3 variant I336_12R/GpL16-k0 (antibody, human IgG1, kappa)
heavy 1: not shown
heavy 2: not shown
light: B1 light
notes: copies: 1 + 1 + 2
B25: GpH7-A5/GpH7-B3 variant I336_13S/GpL16-k0 (antibody, human IgG1, kappa)
heavy 1: not shown
heavy 2: not shown
light: B1 light
notes: copies: 1 + 1 + 2
B26: GpH7-A5/GpH7-B3 variant I336_14T/GpL16-k0 (antibody, human IgG1, kappa)
heavy 1: not shown
heavy 2: not shown
light: B1 light
notes: copies: 1 + 1 + 2
B27: GpH7-A5/GpH7-B3 variant I336_15Y/GpL16-k0 (antibody, human IgG1, kappa)
heavy 1: not shown
heavy 2: not shown
light: B1 light
notes: copies: 1 + 1 + 2
B28: GpH7-A5/GpH7-B3 variant I336_16H/GpL16-k0 (antibody, human IgG1, kappa)
heavy 1: not shown
heavy 2: not shown
light: B1 light
notes: copies: 1 + 1 + 2
B29: GpH7-A5/GpH7-B3 variant I336_18N/GpL16-k0 (antibody, human IgG1, kappa)
heavy 1: not shown
heavy 2: not shown
light: B1 light
notes: copies: 1 + 1 + 2
B30: GpH7-A5/GpH7-B3 variant I336_19Q/GpL16-k0 (antibody, human IgG1, kappa)
heavy 1: not shown
heavy 2: not shown
light: B1 light
notes: copies: 1 + 1 + 2
B31: GpH7-A5/GpH7-B3 variant K326_01G/GpL16-k0 (antibody, human IgG1, kappa)
heavy 1: not shown
heavy 2: not shown
light: B1 light
notes: copies: 1 + 1 + 2

Molecular target: T1, FcγRIIIa (human, UniProt P08637 17-208)
T1 construct: extracellular domain; also called 3a; FcγRIIIa extracellular domain
T1 sequence (P08637 other isoform, or with tags, fused parts or gaps): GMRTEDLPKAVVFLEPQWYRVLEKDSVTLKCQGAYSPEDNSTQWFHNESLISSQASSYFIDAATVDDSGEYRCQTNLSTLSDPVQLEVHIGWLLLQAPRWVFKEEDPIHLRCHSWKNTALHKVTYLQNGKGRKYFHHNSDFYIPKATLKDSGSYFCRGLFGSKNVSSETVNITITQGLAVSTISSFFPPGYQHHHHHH
Test: SPR (Biacore);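 further: antibody variants captured on an SPR sensor chip, with FcγRIIIa passed over as analyte in HBS-EP+ buffer at 25 °C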

Binder	He/Con 3a
B1	89.3 % of GpH7-A5/GpH7-B3/GpL16-k0
B2	56.3 % of GpH7-A5/GpH7-B3/GpL16-k0
B3	92.5 % of GpH7-A5/GpH7-B3/GpL16-k0
B4	76 % of GpH7-A5/GpH7-B3/GpL16-k0
B5	189 % of GpH7-A5/GpH7-B3/GpL16-k0
B6	213 % of GpH7-A5/GpH7-B3/GpL16-k0
B7	78.1 % of GpH7-A5/GpH7-B3/GpL16-k0
B8	95.6 % of GpH7-A5/GpH7-B3/GpL16-k0
B9	110 % of GpH7-A5/GpH7-B3/GpL16-k0
B10	92.4 % of GpH7-A5/GpH7-B3/GpL16-k0
B11	89 % of GpH7-A5/GpH7-B3/GpL16-k0
B12	84.9 % of GpH7-A5/GpH7-B3/GpL16-k0
B13	101 % of GpH7-A5/GpH7-B3/GpL16-k0
B14	116 % of GpH7-A5/GpH7-B3/GpL16-k0
B15	94.6 % of GpH7-A5/GpH7-B3/GpL16-k0
B16	106 % of GpH7-A5/GpH7-B3/GpL16-k0

Binder	He/Con 3a
B17	107 % of GpH7-A5/GpH7-B3/GpL16-k0
B18	93.2 % of GpH7-A5/GpH7-B3/GpL16-k0
B19	104 % of GpH7-A5/GpH7-B3/GpL16-k0
B20	102 % of GpH7-A5/GpH7-B3/GpL16-k0
B21	102 % of GpH7-A5/GpH7-B3/GpL16-k0
B22	114 % of GpH7-A5/GpH7-B3/GpL16-k0
B23	94.4 % of GpH7-A5/GpH7-B3/GpL16-k0
B24	88.8 % of GpH7-A5/GpH7-B3/GpL16-k0
B25	97.1 % of GpH7-A5/GpH7-B3/GpL16-k0
B26	103 % of GpH7-A5/GpH7-B3/GpL16-k0
B27	83.4 % of GpH7-A5/GpH7-B3/GpL16-k0
B28	92.8 % of GpH7-A5/GpH7-B3/GpL16-k0
B29	99.4 % of GpH7-A5/GpH7-B3/GpL16-k0
B30	88.4 % of GpH7-A5/GpH7-B3/GpL16-k0
B31	114 % of GpH7-A5/GpH7-B3/GpL16-k0
